From the RNAGym collection of RNA variant scans (doi:10.7554/elife.90254)

B1: LINE1-full (parent)
chain: UACGUAGGUGGUUUUCCCCUGAUAGUGCUAAGGGGGCCUGGAAGUUUGGACUGGGCAGAGCUCAACACAGCGUGGCAAAGUGGCUGUGGCUAGACUGCCUCUCUGGAUUCCUCGUCACUCAGCAGGGCAUCUCUGAGAGAAAUGCC

Variants of: B1
Assay: self-cleavage, relative activity (ratio to wild type); higher = more cleavage; in vitro, sequencing; the parent is a self-cleaving ribozyme

Variant | self-cleavage
U85A A136U | 0.19
U85A A142C | 0.14
U85A C98A | 0.07
U85A C98G | 0.28
U85A C98U | 0.09
U85A C99G | 0.05
U85A C113U | 0.06
U85A C116A | 0
U85A C116U | 0.11
U85A G88A | 0.23
U85A G105A | 0.04
U85A G125A | 0.04
U85A G127A | 0.06
U85A U87A | 0.07
U85A U87G | 0.07
U85A U96G | 0.15
U85A U100C | 0.21
U85A U109G | 0.05
U85A U112C | 0.04
U85A U119C | 0.09
U85A U130A | 0.1
U85A U130C | 0.1
U85A U132C | 0.09
U85A U134A | 0.06

Variant | self-cleavage
U85A U134C | 0.13
U85A U143A | 0.08
U85A U143C | 0.11
U85C A92G | 0.28
U85C A94G | 0.07
U85C A94U | 0.14
U85C A107G | 0.15
U85C A117G | 0.15
U85C A117U | 0.19
U85C A121G | 0.25
U85C A121U | 0.25
U85C A124G | 0.13
U85C A124U | 0.21
U85C A129G | 0.16
U85C A129U | 0.19
U85C A140G | 0.15
U85C A141G | 0.16
U85C C90A | 0.07
U85C C98U | 0.01
U85C C99U | 0.07
U85C C101A | 0.12
U85C C113A | 0.08
U85C C113U | 0.1
U85C G86U | 0.07

Variant | self-cleavage
U85C G97U | 0.02
U85C G105A | 0.12
U85C G125C | 0.29
U85C G125U | 0.11
U85C G127C | 0.24
U85C G127U | 0.14
U85C G137A | 0.2
U85C G139U | 0.22
U85C U91A | 0.14
U85C U100A | 0
U85C U102A | 0.18
U85C U102G | 0.22
U85C U108A | 0.28
U85C U109G | 0
U85C U115A | 0.19
U85C U119A | 0.25
U85C U119C | 0.28
U85C U130A | 0.35
U85C U130C | 0.23
U85C U134A | 0.14
U85C U134C | 0.26
U85C U134G | 0.14
U85G A107G | 0.09
U85G A107U | 0.27

Variant | self-cleavage
U85G A124G | 0.32
U85G A136G | 0
U85G A138G | 0.22
U85G A141G | 0.1
U85G A142G | 0.1
U85G C113A | 0.14
U85G C118U | 0.14
U85G G106A | 0.29
U85G G144A | 0.21
U85G U102C | 0.55
U85G U104C | 0
U85G U108C | 0.22
U85G U112A | 0.26
U85G U119A | 0.19
U85G U130C | 0.24
G86A A92G | 0.02
G86A A117G | 0.09
G86A A121U | 0.26
G86A A124C | 0.03
G86A A124U | 0.05
G86A A129G | 0.05
G86A A136G | 0.09
G86A A136U | 0.06
G86A A140U | 0.09

Variant | self-cleavage
G86A A142G | 0.06
G86A C110U | 0.09
G86A G126U | 0.02
G86A U96C | 0.05
G86A U100C | 0.1
G86A U112C | 0.08
G86A U115A | 0.01
G86A U119C | 0.07
G86U A107G | 0.02
G86U A124G | 0.07
G86U A129G | 0.09
G86U A138G | 0.09
G86U G105A | 0.06
G86U U96G | 0.13
U87A A94U | 0.04
U87A A107G | 0.1
U87A A107U | 0.09
U87A A117U | 0.04
U87A A124G | 0.07
U87A A129G | 0.11
U87A A136U | 0.1
U87A A138U | 0.03
U87A A140G | 0.07
U87A A141G | 0.06

Variant | self-cleavage
U87A A141U | 0.08
U87A A142G | 0.07
U87A C98U | 0.05
U87A C123U | 0.06
U87A C145U | 0.1
U87A C146U | 0.09
U87A G106A | 0.06
U87A G106C | 0.08
U87A G122A | 0.09
U87A U91A | 0.12
U87A U102C | 0.08
U87A U104A | 0.06
U87A U104C | 0.11
U87A U108A | 0.06
U87A U108C | 0.11
U87A U109C | 0.11
U87A U112A | 0.07
U87A U115A | 0.1
U87A U115C | 0.09
U87A U119G | 0.07
U87A U130A | 0.09
U87A U130C | 0.08
U87A U132A | 0.07
U87A U132C | 0.07

Variant | self-cleavage
U87A U132G | 0.1
U87A U134C | 0.1
U87A U143C | 0.11
U87C A92G | 0.1
U87C A107G | 0.27
U87C A121G | 0.15
U87C A124G | 0.11
U87C A124U | 0.33
U87C A138U | 0.24
U87C A140G | 0.13
U87C A140U | 0.22
U87C A141G | 0.24
U87C A142C | 0.24
U87C A142U | 0.09
U87C C98A | 0.09
U87C C98U | 0.02
U87C C99U | 0.13
U87C C111U | 0.23
U87C C113U | 0
U87C C118U | 0.22
U87C C120U | 0.13
U87C C131U | 0.15
U87C C145G | 0.32
